This data set can be described thus: label from the status in PepcDB records.
For the sequence “MTYQKIIDKINQQISQHVYLGASLALYDGQWQEFYLGETIPHHKTKAGLVYDLASVSKVVGVGTVIIFLLQANHLKLDEPLQAYYPNFHDSSVTIRQLLTHTSGIDPFIPNRNKLDFAALKQAINHIEVTKTKSFHYTDLNFILLGFLLEEFYDQSLDRIIKEHVLKPFGMEKTSFGPVKRAVPTGKTIPIGRVHDPKAQVLGIHTGSAGLFSNLEDLKCFVNHYLSDAFAKPLTQDFAYADKTRSLAWDLTGDWLFHTGYTGTFILLNIKKQSAAIFLSNRTYEKDERSQWILDRNDLIEVIKAALKKVSDSNCD”, the protein production result was “failed”.

As to “MTYSFSKPVSWVFLFTAVIYLVSLSFIQYPATTVLKPIPIVCLIVGVFRTSLSSSAKILLILALVFSLAGDVVLTLPFSLQLELGIACFLLAHCFYITLFLKSFEFNRLHLFYYLPIFLFMGFAAFTMIPYLGNLLIPVMIYFCVLMLMVFSAFQVKKETLTISSGALFFLISDLTLALNLFIYTQADVRIFVMFTYYVAQFLLTFGLVRLYEKGG”, the protein production result is recorded as “failed”.

Consider “MTYVYRKNPVAAATVTVKYIDTQGNSISDSIPLSGNVDQEYTTEQKIISGYTFKEVQGNKSGLFSTTPQTVTYIYTKNPIEIKTGTVTIKYVDTNGNSISDEITKSGNVGSLYTSEQKKILGYNFKEIQGIAEGQFTIESQTVTYVYTKISTPTIIKTSVIPPKTLSVKTLPKESLPETGDKFFGFTLLSGSLLILVSTTLYLLKSRKYK”, for which the protein production result is “failed”.

“MVADAAAAGSGGVGVCARWPRASAEGARMKLTPRVHDWYVGRVVLSTVLLTWAVLLGLDLVNAFASEAKDIGQGSYTFGHAVAYVAYTVPRRAYTLFPTAAVIGALMGLGQLAATSELTALRALGVSRKRMSASVVAAMALLTASMVISGETIGPWAQNQADTLKASARYNSDMAASLYAGLWAREGDTFLNALSGEEKLLDGGDTALDLHDVRLYHLDSSGRMQQLTYASVAEHRDGRWTLRQVRRDTFQERSVQRETFPELPWQSQLNPAALAAGLAKPRNLSAHDLEQSIEYRSRNGLDARDYEDQYWSRWFYPLNVLALCMAAIPFSFGSLRSGGLGKRLFLGILFALGFWLLQLFFGRMAGALKLDYRIAYALPPMVMLGVSAWLFRRRSS”: the protein production entry is recorded as “failed”.

Regarding “MVAKGLIRIVLDILKPHEPIIPEYAKYLSELRGVEGVNITLMEIDKETENIKVTIQGNDLDFDEITRAIESYGGSIHSVDEVVAGRTMVEEVTTPQD”, the protein production entry is on record as “failed”.

On to “MVAQNSVVVIGASGFGRESLDVLEAMKEAGHSLEIIGVVDDNPAAINLQRLAERKIEYLGTLKEWIEGSPKSCKYVLAIGNPTIRHKLSALLDKSGFDAFTAVHPSAVIGSQVVFGSGAVVCSGAVISTNVRLGVHVHINPNVTIGHDSILEDYVSINPAATISGEVLIMEETLIGAAATVLQGLTIGNRSLVGASSCVTKDISAGKVVKGIPARLEHHHHHH”, for which the protein production result was “not failed”.

With “MVARDTTAPQVKIVNPVTGNVSGSNVPISVNASDDSGASGITYALYIDGVLKATGKGSTLGYNWNIRNVAAGAHTVQVVAKDAAGNSASSSLEHHHHHH”, the protein production entry is listed as “not failed”.

“MVAVTYSPGPHLERFLASLSLATERPVSVLLADNGSTDGTPQAAVQRYPNVRLLPTGANLGYGTAVNRTIAQLGEMAGDAGEPWVDDWVIVANPDVQWGPGSIDALLDAASRWPRAGALGPLIRDPDGSVYPSARQMPSLIRGGMHAVLGPFWPRNPWTTAYRQERLEPSERPVGWLSGSCLLVRRSAFGQVGGFDERYFMYMEDVDLGDRLGKAGWLSVYVPSAEVLHHKAHSTGRDPASHLAAHHKSTYIFLADRHSGWWRAPLRWTLRGSLALRSHLMVRRSRRRKLKLVEGRH”: the protein production result is listed as “failed”.

For “MVCYNNPMELLMKIIAFSCHLFFIGLSYQLLISVIDWTKFSHYHPENLGRLRLFVFLLATALGYLVSHCMLELLQISQTLFFEFR”, the protein production result is given as “failed”.

Take “MVDFIRRIQISCVVSLTDSRHQRRTKSHHHPLNPPNPVAESRKRSKGKQKEKVNNMVLFDQATYDKLMSEAPKFKLITPSILSDRLRINGSLARKAIRDLMVKGTIRMVSTHSSQQINTRATCLT”: the protein production entry is “failed”.

For “MVDMDWKRKMVSSDLPNSPKLSSKLHVTIPSPFKIVPVSSPISCSAPALCSAYELYLRLPELRKLWSSRDFPQWTSEPILKPALQALEISFRLVFAVCSDTRPYINHREWNRRLDSLITKQIQLVAAICEDEEEEGISAEAPVGGGRSSLSLLPQLATWRRSEALGKKILYTIDNEMSRCKYTLGLGEQNIAGKPNLRYDAICRPNEIYSLKDNPYADHIDNHENQTLYIIHQILESWIYASGNLLNRIVSSIEEEKFGKASNDVYLLEKIWKILAEIEDLHMLMDPEDFLKLKKQLQIKSTGKNDAFCFRSKGLVEMMKMSKDLRQKVPAVLAVEVDPTGGPRLQEAAMKLYARKTECDKIHLLQGMQAVEAAAKSFFFGYRQLVAAMMGSAEMNATASQESCDSLSQIFMEPTYFPSLDAAKTFLGEFWSHLG”, the protein production entry is “failed”.

Turning to “MVDSYDDSLDGEKSKTQVKRELHALVDLGERLTTLKADVLAKLPLTDALRKALAEAPKHTANIARKRHILFIGKLMRDQDQEAILVLLDQLDASTRQYNERFHNLERWRDRLIAGDDADLEKFVIEYPDADRQQLRSLIRQAQHEVARNKPPATSRKIFKYIRELDELQ”, the protein production result is listed as “not failed”.

On to “MVDSYDDSLDGEKSKTQVKRELHALVDLGERLTTLKADVLAKLPLTDALRKALAEAPKHTANIARKRHILFIGKLMRDQDQEAILVLLDQLDASTRQYNERFHNLERWRDRLIAGDDADLEKFVIEYPDADRQQLRSLIRQAQHEVARNKPPATSRKIFKYIRELDELQRGLR”, for which the protein production entry is listed as “not failed”.

As for “MVDWSTLPKDLLDLISKSLESSFDLIQFRSVCSSWRSAAEPKSPLPTHHLPILPDNGGSLFPDSAVGFRLSQRSILLIKPHEPCIESDSFGWLIKVEEDLNVPRKVTLLDPLCDTRNSIPENFPRVLDMSKFKVRELGREFKLHYFNTVGDIVESLYLEKAVVKYLDCDGDYKFVLLTIHVSGKLAVFRSWDRAWTVINDMPSPYDDVMLFDGRFFAVDNNGRTVVVDYSSLKLTLVASPVFGGDKKFLIESCGEMLLVDMYLSLEAVEGDPGFVEEIFEHPAFYMNERTVKFKVYRFVEREESWVDVYDLEDKMLFLGDDSTFSASASDILPLCDGSSVFFNGNVFNGEDLGAMQDRDLGVFDFRSGKIELVQKLPEYAKLFWPPPPWITSHARAEDHIGETSSQS”, the protein production result was “failed”.

Regarding “MVEAIIFDMDGVLFDTEKYYYDRRASFLGQKGISIDHLPPSFFIGGNTKQVWENILRDEYDKWDVSTLQEEYNTYKQNNPLPYKELIFPDVLKVLNEVKSQGLNIGLASSSVKADIFRALEENRLQAFFDIVLSGEEFKESKPNPEIYLTALKQLNVQASRALIIEDSEKGIAAGVAADVEVWAIRDNLFGMDQSAAKGLLDSLTDVLDLI”, the protein production entry is given as “not failed”.

With “MVEAPPPELRILSAGDSSYSGSGWSRVPHVWLRDEIRLSGEPRVRQGKREGDRRFRGRGRDRGRWHLGCPRKALFSNLLGTVYRCGNLNFSRDGNSVISPVGNRVTVFDLKNNRSDTLPLATKYNIKCVGLSPDGRLAIIVDEGGAALLVSLVCRSVLHHFHFKGSVHSVSFSPDGRKFVITKGNIAQMYHAPGKKREFNAFVLDKTYFGPYDETTCIDWTDDSKCFVVGSKDMSTWVFGAERWDNLIYYALSGHKDAIVACFFESNSLDLYSLSQDGALCVWQCDTPPEGLRLKAPRGWKADILQREKEEEEEEDEEGEGNRETTIRGKAVPAEQERVGKVKYSRLAKYFLNKEGDFNNLTAAAYHKKTHLLVTGFASGIFHLHELPEFNLIHSLSISDQRVASVAINSSGDWIAFGCSGLGQLLVWEWQSESYVLKQQGHFNSMVALAYSPDGQYIVTGGDDGKVKVWNTLSGFCFVTLTEHSSGVTGVTFTATGHVIVTSSLDGTVRAYDLHRYRNFRTFTSPRPTQFSCVAVDSSGEIVSAGAQDSFEIFVWSMQTGRLLDVLSGHEGPISGLCFNPMKSILASASWDKTVRLWDMFDSWRTKETLSLTSDVLAVTYRPDGAELAVATLNSQITFWDPENAVQVGSIEGRHDLKTGRKELDKITAKHSAKGKAFTTVCYSADGQNILAGGMSKFVCLYHVREQILVKRFELSCNFSLDAMEEFLNRRKMTEFGNLALIDQDAGEENGVAIPLPGVRKGDMSSRHFKPEIRVTSLRFSPTGRCWAATSTEGLLIFSLDAQMLFDPFELDTSVTPGRIREALRQREFTRAILMAFRLNEKKLAQEALEAVPQNEIEVVSASLPELYVVKVLEFLAASFEESRHLEFYLIWTQKLLMSHGQRLKSRAGQLLPVVQFLQKGLQRHLDDISKLCDWNRYNIQYALAVSKQRGMKRTLEPVDTEEDTDASDEDSLHLLRAAEEEEEGMLV”, the protein production entry is given as “failed”.

As for “MVEGVHCVPDSVELMPKQHDIPRARLRIVVHEGRNHEVRELVKNAGLEVHSLKRVRIGGFRLPSDLGLGKHVELKQSELKALGWKN”, the protein production result is on record as “not failed”.

In the case of “MVESKNTELSQGTWLNKPKSVFQEAGKVTLETDEKTDFWRETFYGFTRDSGHFLGVETGSAFTAQVRVQGSYESLYDQAGIMVRIDDGHWLKAGIEISDGHAMLSSVLTNGKSDWSTAVYGGNARDFWLRVTVEKGVLRIQVSSDKKTWPLVRLAPFPTSDHYLVGPMACTPERGGLKVTFSEWSLTAPLGKALHDLS”, the protein production entry was “failed”.

Take “MVETLPALEIGEDERLDLENLATGAFFPVKGFMTREEALSVAHEMRLPTGEVWTIPILLQFREKPRVGPGNTVALLHGGERVALLHVAEAYELDLEALARAVFGTDSETHPGVARLYGKGPYALAGRVEVLKPRPRTPLEKTPEEVRAFFRQRGWRKVVAFQTRNAPHRAHEYLIRLGLELADGVLVHPILGAKKPDDFPTEVIVEAYQALIRDFLPQERVAFFGLATPMRYAGPKEAVFHALVRKNFGATHFLVGRDHAGVGDFYDPYAAHRIFDRLPPLGIEIVKVGAVFHCPLCGGIASERTCPEGHREKRTAISMTKVRALLREGKAPPSELVRPELLPILRRGV”: the protein production result is listed as “not failed”.

For “MVFCGDDVATGVRDAITYCYRCKGRKVTLSDHEADDDNKPIGDFDYDHEVVVFEIRSRAMEKLRKKRRTGMEGLTYKFVKEYDIENEFCSVRSSFSECCMSDISIEGYMTAKTEFSRSSSLKGLELENQWKMHYVNEIKKGSVIQEFCHCQGWPFGLGRKAALLPPLPKSPAESWSWRKPTRVTPVPFV”, the protein production result is “failed”.

Take “MVFIMENTNKIASLELGRLLAMFAIIALHSQVFMTYLLMDDFPVFGNIFNQLTRFAVPFFFILSGYFIQPKLTHTPLKTIQSYCAPLFKIWIVWSVLSLALPFHWRKVAENGYLAERTGYWNWLTQNPLNALFEGGMVHLWFIPALIIAVSIIGLLIHFKKTTWLIPIAVILYVYGLAGGSYQTLTEVWTPFFTRNGPFFSTLMVVIGFELRRREITLSSTNALILLLVGFAIHFSEAYWLTQFDVPFNLHDFLIGTPLMGIGVFFLLLSKPQLGHHPITFTLSKHVLGIYVCHLLFVVVFLNITGMMGITLAMRDFVIVFGTATASTLFVLIMDKTPFRQMLFR”: the protein production entry is recorded as “failed”.

“MVFSGPASPGLTLAPLRRGGIDPCYRVDAAGAIWRTSLMPSGPVTARITRAATDAADCQAWGEGADEFIDRLPALLGVDDDASDFAPAEPTIAKARRQVPHLRLGRTGRMLEALIPAIIEQRVYGLDAWRAWRALVTKFGTPAPGPAPDGMRVVPSAEVWRRIPSWEFHRANVDPGRARTIVMCAQRADSLERLTHERAAVTLRSLPGVGEWTAAETMQRVFGDADALSAGDYHLATLVGQALTGEPVDDAGMVELLEPMRPHRHRAVRLLEASGMFVYRRRGARQAIPKLRTLLEHHHHHH”: the protein production result was “failed”.

The values above are taken from a protein production outcome set (Wang et al. 2014).
